Test results: patent US20210292409A1 (Chugai, published 2021)

What was measured:
[1] = molecular target: T1, human IL6R (Accession no. NP_000556) (human, UniProt P08887 20-468); test: flow cytometry on HeLa/BirA cells transfected with human IL6R; antibody at 1 micro M in the sorting step
T1 construct: whole, on cells; Expressed on Flp-In-CHO cells (IL6R+CHO)
T1 sequence (looked up): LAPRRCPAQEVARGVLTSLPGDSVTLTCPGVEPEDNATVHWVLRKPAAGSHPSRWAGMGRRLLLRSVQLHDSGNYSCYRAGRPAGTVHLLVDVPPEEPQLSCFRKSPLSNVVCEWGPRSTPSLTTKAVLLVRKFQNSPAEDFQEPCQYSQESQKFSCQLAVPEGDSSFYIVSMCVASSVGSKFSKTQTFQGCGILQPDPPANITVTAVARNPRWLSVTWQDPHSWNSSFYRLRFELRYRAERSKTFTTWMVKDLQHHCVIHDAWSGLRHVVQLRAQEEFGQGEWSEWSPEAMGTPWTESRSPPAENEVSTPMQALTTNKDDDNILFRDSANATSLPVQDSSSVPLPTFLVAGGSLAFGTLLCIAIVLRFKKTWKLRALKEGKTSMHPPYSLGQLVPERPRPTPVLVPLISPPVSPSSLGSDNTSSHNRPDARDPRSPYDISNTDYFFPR
Description: To select cells stably expressing IL6R, antibiotic resistant cells were incubated with 1 micro M of anti-IL6R antibody PF1H-G4T1K439E.Avi/PF1L-KT0 (heavy chain, PF1H-G4T1K439E.Avi (SEQ ID NO: 66); light chain, PF1L-KT0 (SEQ ID NO: 67) in MACS buffer (Auto MACS Rinsing Solution (Miltenyi Biotec, Cat #130-091-222) and MACS BSA Stock Solution (Miltenyi Biotec, Cat #1130-091-376)) for 30 min on ice. After wash in MACS buffer, cells were further incubated with R-phycoerythrin (PE) labelled anti-kappa antibody (Southern Biotech, Cat #2060-09) for 30 min on ice in MACS buffer. After wash in MACS buffer, cells expressing IL6R were sorted by FACSAria IIu sorter (Becton Dickinson). Selected clones were then expanded. Flow cytometry using anti-IL6R antibody PF1H-G4T1K439E.Avi/PF1L-KT0 and R-phycoerythrin (PE) labelled anti-kappa antibody (Southern Biotech, Cat #2060-09) with FACS Verse (Becton Dickinson) confirmed high expression of IL6R. BirA expression was also confirmed by capillary immunoassay using Simple Western Wes (Protein Simple).

[2] = molecular target: T2, human ASGPR (ASGPR-H1 and ASGPR-H2 subunits) (human, UniProt P07306 2-291; P07307 2-311); test: flow cytometry on HeLa/ASGPR/BirA cells
T2 construct: Plasmids for H1 and H2 transfected in a ratio of 2:1 into HeLa cells; also called Asialoglycoprotein receptor
T2 sequence 1: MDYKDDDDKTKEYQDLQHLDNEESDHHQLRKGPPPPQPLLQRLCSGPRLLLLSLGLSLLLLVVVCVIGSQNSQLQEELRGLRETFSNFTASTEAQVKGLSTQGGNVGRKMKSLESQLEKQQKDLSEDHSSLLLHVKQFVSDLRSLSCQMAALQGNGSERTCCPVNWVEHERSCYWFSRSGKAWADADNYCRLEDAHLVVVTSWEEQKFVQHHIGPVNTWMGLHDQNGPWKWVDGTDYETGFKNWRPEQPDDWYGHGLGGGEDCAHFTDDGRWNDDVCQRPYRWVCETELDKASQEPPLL
T2 sequence 2: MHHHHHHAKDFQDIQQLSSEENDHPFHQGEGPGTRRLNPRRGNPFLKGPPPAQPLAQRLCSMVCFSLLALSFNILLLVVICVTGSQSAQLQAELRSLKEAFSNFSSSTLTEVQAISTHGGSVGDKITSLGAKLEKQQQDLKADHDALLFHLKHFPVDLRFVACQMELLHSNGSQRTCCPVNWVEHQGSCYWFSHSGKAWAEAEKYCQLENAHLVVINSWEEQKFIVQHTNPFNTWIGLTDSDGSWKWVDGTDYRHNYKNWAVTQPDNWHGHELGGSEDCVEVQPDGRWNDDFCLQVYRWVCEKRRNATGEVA

B1: anti-IL6R antibody PF1H-G4T1K439E.Avi/PF1L-KT0 (antibody, human IgG4 S228P, kappa, V domains shown)
VH: QVQLQESGPGLVKPSETLSLTCAVSGYSISDDHAWSWVRQPPGEGLEWIGYISYSGITNYNPSLKGRVTISRDTSKNQFSLKLSSVTAADTAAYYCARVLARITAMDYWGEGTLVTVSS
VL: DIQMTQSPSSLSASVGDSVTITCQASQDISSYLNWYQQKPGKAPELLIYYGSELHSGVPSRFSGSGSGTDFTFTISSLEAEDAATYYCGQGNRLPYTFGQGTKVEIER
Does B1 bind [1]?
Result: binds

B2: anti-ASGPR antibody AGA0008Ha-G4T1K439E.Avi/AGA0008La-kOMC (antibody, human IgG4 S228P, kappa, V domains shown)
VH: QSVEESGGRLVTPGTPLTLTCTVSGFSLSSYAMGWVRQAPGKGLEYIGFINTGGSPYYASWAKGRFTISRTSTTVDLKMTSPTTEDTATYFCARDYDTSSGYYGYFNLWGPGTLVTVSS
VL: AQVLTQTPASVSAAVGGTVTIKCQASENIDSYLAWYQQKPGQPPKLLIYRASTLASGVPSRFKGSGSGTPFTLTISDLECADAATYYCQRYVSLNSGDAFGGGTKVEIKR
Does B2 bind [2]?
Result: binds
